# Reference: IntAct's records for PubMed 31515488
# B1: Phenazine biosynthesis-like domain-containing protein (Homo sapiens), P30039 (parent)
# chain: MKLPIFIADAFTARAFRGNPAAVCLLENELDEDMHQKIAREMNLSETAFIRKLHPTDNFAQSSCFGLRWFTPASEVPLCGHATLASAAVLFHKIKNMNSTLTFVTLSGELRARRAEDGIVLDLPLYPAHPQDFHEVEDLIKTAIGNTLVQDICYSPDTQKLLVRLSDVYNRSFLENLKVNTENLLQVENTGKVKGLILTLKGEPGGQTQAFDFYSRYFAPWVGVAEDPVTGSAHAVLSSYWSQHLGKKEMHAFQCSHRGGELGISLRPDGRVDIRGGAAVVLEGTLTA
# partner: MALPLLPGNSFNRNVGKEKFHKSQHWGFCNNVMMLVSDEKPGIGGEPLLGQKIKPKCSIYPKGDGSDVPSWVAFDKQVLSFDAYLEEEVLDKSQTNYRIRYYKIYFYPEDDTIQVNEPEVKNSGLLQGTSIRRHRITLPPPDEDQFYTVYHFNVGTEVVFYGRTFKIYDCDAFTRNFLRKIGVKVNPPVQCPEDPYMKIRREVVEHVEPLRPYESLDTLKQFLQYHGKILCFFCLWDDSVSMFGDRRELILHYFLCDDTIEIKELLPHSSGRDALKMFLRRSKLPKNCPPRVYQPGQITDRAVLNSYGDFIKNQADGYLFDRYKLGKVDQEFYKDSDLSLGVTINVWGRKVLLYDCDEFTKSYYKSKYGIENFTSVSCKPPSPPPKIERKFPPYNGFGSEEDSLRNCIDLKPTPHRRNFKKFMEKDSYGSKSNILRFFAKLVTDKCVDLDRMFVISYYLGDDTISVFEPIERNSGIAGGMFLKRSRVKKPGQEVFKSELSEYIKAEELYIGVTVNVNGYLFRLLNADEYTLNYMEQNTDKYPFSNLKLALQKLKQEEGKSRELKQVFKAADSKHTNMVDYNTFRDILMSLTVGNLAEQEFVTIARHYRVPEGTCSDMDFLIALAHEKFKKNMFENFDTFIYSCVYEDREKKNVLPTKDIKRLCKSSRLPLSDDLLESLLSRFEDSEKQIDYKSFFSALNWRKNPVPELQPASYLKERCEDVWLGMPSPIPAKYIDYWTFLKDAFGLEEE
# B2: Probable RNA-binding protein EIF1AD (Homo sapiens), Q8N9N8 (parent)
# chain: MSQATKRKHVVKEVLGEHIVPSDQQQIVRVLRTPGNNLHEVETAQGQRFLVSMPSKYRKNIWIKRGDFLIVDPIEEGEKVKAEISFVLCKDHVRSLQKEGFWPEAFSEVAEKHNNRNRQTQPELPAEPQLSGEESSSEDDSDLFVNTNRRQYHESEEESEEEEAA
# B3: Dynein light chain 2, cytoplasmic (Homo sapiens), Q96FJ2 (parent)
# chain: MSDRKAVIKNADMSEDMQQDAVDCATQAMEKYNIEKDIAAYIKKEFDKKYNPTWHCIVGRNFGSYVTHETKHFIYFYLGQVAILLFKSG
# partner: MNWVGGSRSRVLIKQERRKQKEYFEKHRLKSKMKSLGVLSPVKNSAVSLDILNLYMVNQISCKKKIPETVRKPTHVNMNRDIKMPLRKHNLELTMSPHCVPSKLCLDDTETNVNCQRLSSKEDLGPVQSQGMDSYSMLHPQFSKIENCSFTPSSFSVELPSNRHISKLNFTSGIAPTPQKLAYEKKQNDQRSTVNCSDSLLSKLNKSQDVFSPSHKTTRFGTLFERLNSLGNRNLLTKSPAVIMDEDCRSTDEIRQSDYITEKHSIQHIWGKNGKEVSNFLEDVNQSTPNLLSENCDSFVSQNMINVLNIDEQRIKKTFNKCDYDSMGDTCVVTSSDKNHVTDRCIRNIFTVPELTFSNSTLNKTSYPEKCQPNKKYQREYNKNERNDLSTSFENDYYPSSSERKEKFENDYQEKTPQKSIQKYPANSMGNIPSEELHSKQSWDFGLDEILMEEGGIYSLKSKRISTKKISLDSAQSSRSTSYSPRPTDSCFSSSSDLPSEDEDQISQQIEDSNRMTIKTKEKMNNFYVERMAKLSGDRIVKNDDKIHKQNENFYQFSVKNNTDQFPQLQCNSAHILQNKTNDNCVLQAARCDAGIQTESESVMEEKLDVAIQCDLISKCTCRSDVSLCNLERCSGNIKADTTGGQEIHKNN
# B4: Ribosome quality control complex subunit TCF25 (Homo sapiens), Q9BQ70 (parent)
# chain: MSRRALRRLRGEQRGQEPLGPGALHFDLRDDDDAEEEGPKRELGVRRPGGAGKEGVRVNNRFELINIDDLEDDPVVNGERSGCALTDAVAPGNKGRGQRGNTESKTDGDDTETVPSEQSHASGKLRKKKKKQKNKKSSTGEASENGLEDIDRILERIEDSTGLNRPGPAPLSSRKHVLYVEHRHLNPDTELKRYFGARAILGEQRPRQRQRVYPKCTWLTTPKSTWPRYSKPGLSMRLLESKKGLSFFAFEHSEEYQQAQHKFLVAVESMEPNNIVVLLQTSPYHVDSLLQLSDACRFQEDQEMARDLVERALYSMECAFHPLFSLTSGACRLDYRRPENRSFYLALYKQMSFLEKRGCPRTALEYCKLILSLEPDEDPLCMLLLIDHLALRARNYEYLIRLFQEWEAHRNLSQLPNFAFSVPLAYFLLSQQTDLPECEQSSARQKASLLIQQALTMFPGVLLPLLESCSVRPDASVSSHRFFGPNAEISQPPALSQLVNLYLGRSHFLWKEPATMSWLEENVHEVLQAVDAGDPAVEACENRRKVLYQRAPRNIHRHVILSEIKEAVAALPPDVTTQSVMGFDPLPPSDTIYSYVRPERLSPISHGNTIALFFRSLLPNYTMEGERPEEGVAGGLNRNQGLNRLMLAVRDMMANFHLNDLEAPHEDDAEGEGEWD
# partner: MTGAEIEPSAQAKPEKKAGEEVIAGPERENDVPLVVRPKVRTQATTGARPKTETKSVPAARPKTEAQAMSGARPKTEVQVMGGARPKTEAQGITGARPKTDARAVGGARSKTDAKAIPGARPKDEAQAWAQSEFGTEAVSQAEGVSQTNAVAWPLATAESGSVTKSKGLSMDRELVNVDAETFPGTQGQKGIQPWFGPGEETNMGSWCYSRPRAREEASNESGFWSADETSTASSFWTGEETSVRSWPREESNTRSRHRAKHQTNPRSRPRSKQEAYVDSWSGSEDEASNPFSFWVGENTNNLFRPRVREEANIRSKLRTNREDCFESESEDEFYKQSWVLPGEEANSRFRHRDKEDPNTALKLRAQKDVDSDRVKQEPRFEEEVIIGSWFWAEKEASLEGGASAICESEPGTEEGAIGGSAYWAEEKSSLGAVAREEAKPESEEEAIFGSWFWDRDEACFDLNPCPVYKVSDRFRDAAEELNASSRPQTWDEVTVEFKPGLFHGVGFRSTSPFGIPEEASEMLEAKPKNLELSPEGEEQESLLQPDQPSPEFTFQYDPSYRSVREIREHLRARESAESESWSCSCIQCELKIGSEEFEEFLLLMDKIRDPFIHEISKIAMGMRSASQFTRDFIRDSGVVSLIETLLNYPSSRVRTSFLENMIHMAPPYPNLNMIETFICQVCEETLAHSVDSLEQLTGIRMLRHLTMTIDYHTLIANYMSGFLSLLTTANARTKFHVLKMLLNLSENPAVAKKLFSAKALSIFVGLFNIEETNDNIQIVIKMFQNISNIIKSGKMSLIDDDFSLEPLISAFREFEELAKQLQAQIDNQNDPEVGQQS
# B5: Ligand of Numb protein X 2 (Homo sapiens), Q8N448 (parent)
# chain: MGTTSDEMVSVEQTSSSSLNPLCFECGQQHWTRENHLYNYQNEVDDDLVCHICLQPLLQPLDTPCGHTFCYKCLRNFLQEKDFCPLDRKRLHFKLCKKSSILVHKLLDKLLVLCPFSSVCKDVMQRCDLEAHLKNRCPGASHRRVALERRKTSRTQAEIENENGPTLLDPAGTLSPEADCLGTGAVPVERHLTSASLSTWSEEPGLDNPAFEESAGADTTQQPLSLPEGEITTIEIHRSNPYIQLGISIVGGNETPLINIVIQEVYRDGVIARDGRLLAGDQILQVNNYNISNVSHNYARAVLSQPCNTLHLTVLRERRFGNRAHNHSDSNSPREEIFQVALHKRDSGEQLGIKLVRRTDEPGVFILDLLEGGLAAQDGRLSSNDRVLAINGHDLKYGTPELAAQIIQASGERVNLTIARPGKPQPGNTIREAGNHSSSSQHHTPPPYYSRPSSHKDLTQCVTCQEKHITVKKEPHESLGMTVAGGRGSKSGELPIFVTSVPPHGCLARDGRIKRGDVLLNINGIDLTNLSHSEAVAMLKASAASPAVALKALEVQIVEEATQNAEEQPSTFSENEYDASWSPSWVMWLGLPSTLHSCHDIVLRRSYLGSWGFSIVGGYEENHTNQPFFIKTIVLGTPAYYDGRLKCGDMIVAVNGLSTVGMSHSALVPMLKEQRNKVTLTVICWPGSLV
# partner: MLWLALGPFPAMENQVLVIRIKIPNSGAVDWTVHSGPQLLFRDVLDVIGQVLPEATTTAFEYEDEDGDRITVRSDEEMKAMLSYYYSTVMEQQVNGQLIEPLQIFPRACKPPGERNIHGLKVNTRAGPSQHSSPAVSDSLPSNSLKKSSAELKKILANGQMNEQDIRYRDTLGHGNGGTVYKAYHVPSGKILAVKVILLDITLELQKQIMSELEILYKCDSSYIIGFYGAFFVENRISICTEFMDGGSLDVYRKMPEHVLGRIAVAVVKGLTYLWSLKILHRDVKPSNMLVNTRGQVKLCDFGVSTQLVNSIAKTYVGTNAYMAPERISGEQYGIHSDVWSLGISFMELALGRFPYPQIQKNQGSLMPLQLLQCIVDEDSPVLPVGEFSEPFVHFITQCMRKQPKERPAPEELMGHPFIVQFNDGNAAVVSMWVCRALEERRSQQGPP
# B6: ATPase PAAT (Homo sapiens), Q9H8K7 (parent)
# chain: METRTEDGGLTRRPTLASSWDVAGGALTHSLLLTRAGLGPGDFDWEELLAPPAPGQDLVILKRNHNNKDENPCFLYLRCGPDGGEEIASIGILSSARNMEVYLGEEYCGTSRGKNVCTVLDDSEHEKIILYKKNLKLESSTHACKIKLLSFGERQCVFISKVVVHMRSVFANSSTSSPALGSRIDLDKVQTIMESMGSKLSPGAQQLMDMVRCQQRNCIPIGEQLQSVLGNSGYKHMIGLQSSSTLGTLNKSSSTPFPFRTGLTSGNVTENLQTYIDKSTQLPGGENSTKLDECKVMPQNHSFLENDLKNAMASFLPKKVSDNSNIPNSELLPFLQNLCSQVNHLHVGNKTECQENITKHGERILGVGMEEQSICSYLEKILSKNMELMEKKLMDYIDQRIHELQEHIDDKIALLLDLLQNPNSPPTGIPLRHYDSGERLSNGER
# partner: B5 chain
# Variants of: B1
# Conditions: with efhc2_human EFHC2, Q5JST6
row,Variant,effect of a mutation on the interaction
1,Y154C,disrupting interaction strength

# Variants of: B2
# Conditions: with tbcd5_human TBC1D5, Q92609
# Sequence of tbcd5_human TBC1D5, Q92609 (Q92609 whole entry): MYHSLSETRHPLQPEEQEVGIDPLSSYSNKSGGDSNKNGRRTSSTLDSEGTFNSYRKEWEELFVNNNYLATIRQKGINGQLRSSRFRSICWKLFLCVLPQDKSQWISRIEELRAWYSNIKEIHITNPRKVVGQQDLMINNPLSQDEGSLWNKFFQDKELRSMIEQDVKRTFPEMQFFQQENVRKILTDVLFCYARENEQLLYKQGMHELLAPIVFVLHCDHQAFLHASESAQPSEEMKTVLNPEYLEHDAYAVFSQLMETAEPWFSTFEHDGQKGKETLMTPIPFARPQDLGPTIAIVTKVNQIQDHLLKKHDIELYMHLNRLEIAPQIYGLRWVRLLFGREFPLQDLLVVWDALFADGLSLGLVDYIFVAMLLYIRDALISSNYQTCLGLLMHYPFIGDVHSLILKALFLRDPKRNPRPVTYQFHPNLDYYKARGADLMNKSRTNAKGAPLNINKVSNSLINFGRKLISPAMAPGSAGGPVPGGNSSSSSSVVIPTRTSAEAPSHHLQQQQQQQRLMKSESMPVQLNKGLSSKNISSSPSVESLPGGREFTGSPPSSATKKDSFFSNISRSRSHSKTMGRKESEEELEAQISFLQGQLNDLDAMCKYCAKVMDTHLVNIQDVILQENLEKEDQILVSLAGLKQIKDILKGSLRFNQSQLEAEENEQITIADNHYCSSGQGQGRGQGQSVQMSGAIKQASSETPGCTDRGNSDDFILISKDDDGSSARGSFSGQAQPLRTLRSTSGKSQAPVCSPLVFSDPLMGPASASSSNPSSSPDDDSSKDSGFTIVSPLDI
row,Variant,effect of a mutation on the interaction
1,R48C,with no effect

# Variants of: B3
# Conditions: with rdic1_human REDIC1, Q86WS4
row,Variant,effect of a mutation on the interaction
1,E30D,with no effect

# Variants of: B4
# Conditions: with gasp2_human GPRASP2, Q96D09
row,Variant,effect of a mutation on the interaction
1,V526A,with no effect

# Variants of: B5
# Conditions: with mp2k5_human MAP2K5, Q13163
row,Variant,effect of a mutation on the interaction
1,S198P,with no effect

# Variants of: B6
# Conditions: with lnx2_human LNX2, Q8N448
row,Variant,effect of a mutation on the interaction
1,G8R,with no effect
